From patent US20250163136A1 (FRAUNHOFER GESELLSCHAFT ZUR F RDERUNG DER ANGEWANDTEN …, published 2025)
Numbered stars: 1 amine (or outer) side, 2 acyl side, 3 side chain; on linkers, the order of the positions; unused ones are H or OH. Square brackets hold non-standard residues; d marks the D form. * marks the point of attachment. Biotin = O=C1N[C@H]2[C@H](CS[C@H]2CCCCC(=O)*)N1; βAsp = O=C(O)[C@H](CC(=O)[*:2])N[*:1]; PEG = not defined here

T1: TTR(35-43)-PEG-Biotin (human, reading uncertain)
T1 construct: also called non-modified peptide TTR(35-43)
T1 peptide: {Biotin-PEG}-KAADDTWEP-NH2

T2: isoD38-TTR(35-43)-PEG-Biotin (human, reading uncertain)
T2 construct: KAAXDTWEP; also called isoaspartate-containing TTR(35-43)-peptide
T2 peptide: {Biotin-PEG}-KAA[βAsp]DTWEP-NH2

B1: monoclonal antibody 2F2 (antibody, V domains shown)
VH: DVQLVESGGGLVQPGGSRKLSCAASGFTFSSFAMHWVRQAPDKGLEWVAFISSGSNTIYYADTVKGRFTVSRDNPKNTLFLQMTSLRSEDTAMYYCASNSYYGMDYWGQGTSVTVSS
VL: NIMMTQSPSSLAVSAGEKVTMSCKSSQSVLYSSNQKNYLAWYQQKPGQSPKLLIYWASTRESGVPDRFTGSGSGTDFTLTISSVQAEDLAVYYCHQYLSSRTFGAGTKLELKR
notes: also called isoD38-TTR-specific antibody 2F2; TTR mAb 2F2
B2: monoclonal antibody 4D4 (antibody, V domains shown)
VH: QVQLQQSGAELMKPGASVKISCKAPGNTFSSRWIEWVKERPGHGLEWIGEIFPGNGNTNYNEKFKGKATFTADTSSNTAYIQFSSLASEDSGVYYCVSEDYWGQGTLVTVSS
VL: DIQMTQSPASLSASVGETVTITCRTSGNIRNSLAWYRQKQGKSPQLLVFNGKTLADGVPSRFSGSGSGTQYSLKINSLQPEDLGTYYCQHFWNIPFTFGSGTKLEIKR
notes: also called isoD38-TTR-specific antibody 4D4; TTR mAb 4D4

Tests used:
[1] = biological target: T3, aggregated Aβ(1-42) with confirmed isoAsp-content (isoD7-Aβ(1-42)) (X at position 7 is L-isoAsp); assay: dot blot
T3 construct: Aggregated amyloid fibrils; dot blot lanes 8 and 9 (with m11); also called isoD7-AB; aggregated Aβ1-42 (verified isoD content)
Procedure: (§1) 0.5 μg of recombinantly expressed TTR proteins (TTRwt (SEQ ID NO: 1), TTR-V30M (SEQ ID NO: 7), or TTR-V122I (SEQ ID NO: 8)), ATTR fibrils or 0.5 μg of either freshly dissolved Aβ(1-42) (SEQ ID NO: 9) or aggregated Aβ(1-42) with confirmed isoAsp-content (SEQ ID NO: 10) were spotted on nitrocellulose membranes. Membranes were blocked for 1 hour in blocking solution (5% (w/v) milk powder in TBS+0.05% (v/v) Tween-20 (Carl Roth)). […] Alkaline phosphatase-conjugated, anti-mouse or rabbit IgG antibodies (abeam) in combination with chromogenic substrates BCIP and NBT (Carl Roth) were subsequently used for detection.

[2] = biological target: T4, freshly dissolved Aβ(1-42); assay: dot blot
T4 construct: Dot blot lanes 8 and 9 (with m12); also called monomeric peptides of Aβ
Procedure: as §1

[3] = biological target: T1, TTR(35-43)-PEG-Biotin; assay: SPR, BIAcore 3000, 25 °C; antibody captured on goat anti-mouse IgG (CM5 chip), peptide injected (five consecutive injections, 512 nM to 131 µM)
Procedure: (§2) Antibody binding kinetics to TTR(35-43)-PEG-Biotin (SEQ ID NO: 5) and isoD38-TTR(35-43)-PEG-Biotin (SEQ ID NO: 6) were analyzed by using SPR on a BIAcore 3000 device at 25° C. For this purpose, the surface of a CM5 sensor chip (Cytiva) was modified with a goat anti-mouse antibody using NHS/EDC chemistry. To immobilize the anti-mouse IgG, the carboxymethylated dextran surface of the sensor chip was activated by mixing 0.1 M N-hydroxysuccinimide (NHS) with 0.4 M N-ethyl-N′-(dimethylaminopropyl) carbodiimide hydrochloride (EDC) 1:1. EDC/NHS was applied to the sensor chip with a flow rate of 20 μL/min for 7 minutes. Goat anti-mouse IgG was diluted to 50 μg/mL in 10 mM sodium acetate, pH 5.5, and injected for 2×4 minutes contact time with a flow rate of 30 μL/min. Deactivation was done by applying 1 M ethanolamine pH 8.5 with a flow rate of 10 μL/min for 2×7 minutes contact time. About 20000 RU of the goat anti-mouse antibody were immobilized onto the chip surface.

[4] = biological target: T2, isoD38-TTR(35-43)-PEG-Biotin; assay: SPR, BIAcore 3000, 25 °C; antibody captured on goat anti-mouse IgG (CM5 chip), peptide injected (five consecutive injections, 2 nM to 512 nM)
Procedure: as §2

[5] = biological target: T1, TTR(35-43)-PEG-Biotin; assay: SPR, BIAcore 3000, 25 °C; antibody captured on goat anti-mouse IgG (CM5 chip), peptide injected (multicycle kinetics, 1 µM to 200 µM)
Procedure: as §2

[6] = biological target: T2, isoD38-TTR(35-43)-PEG-Biotin; assay: SPR, BIAcore 3000, 25 °C; antibody captured on goat anti-mouse IgG (CM5 chip), peptide injected (multicycle kinetics, 10 nM to 100 µM)
Procedure: as §2

T4 sequence (peptide, as listed by the source): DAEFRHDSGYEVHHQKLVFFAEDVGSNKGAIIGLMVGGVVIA
T3 sequence (peptide, as listed by the source): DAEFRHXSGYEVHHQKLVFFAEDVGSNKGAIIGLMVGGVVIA

| Binder | binding result [1] | binding result [2] | Kd [3] | Kd [4] | Kd [5] | Kd [6] |
| --- | --- | --- | --- | --- | --- | --- |
| B1 | no binding (tested: 0.5 µg peptide spotted; antibody 1 µg/mL) | no binding (tested: 0.5 µg peptide spotted; antibody 1 µg/mL) | 719 nM | 1.55 nM |  |  |
| B2 | no binding (tested: 0.5 µg peptide spotted; antibody 1 µg/mL) | no binding (tested: 0.5 µg peptide spotted; antibody 1 µg/mL) |  |  | 29 µM | 124 nM |
